Test results: US20250076311A1 (Chugai, published 2025)
Residue numbers refer to the chain shown, from its start. Names may count otherwise.

Assays:
[1] = target: T1, cynomolgus monkey FcγRIIIaS extracellular domain with C-terminal His-tag (cynomolgus monkey, UniProt A3RFZ7 21-206 (rhesus entry)); experiment: SPR (BIACORE), antibody captured, FcgR analyte
T1 construct: also called cyno FcgRIIIaS; cynoFcγRIIIaS; not shown: His-tag added to the C-terminus

[2] = target: T2, cynomolgus monkey FcγRIIb extracellular domain with C-terminal His-tag (cynomolgus monkey); experiment: SPR (BIACORE), antibody captured, FcgR analyte
T2 construct: also called cyno FcgRIIb; cynoFcγRIIb; not shown: His-tag added to the C-terminus
T2 chain: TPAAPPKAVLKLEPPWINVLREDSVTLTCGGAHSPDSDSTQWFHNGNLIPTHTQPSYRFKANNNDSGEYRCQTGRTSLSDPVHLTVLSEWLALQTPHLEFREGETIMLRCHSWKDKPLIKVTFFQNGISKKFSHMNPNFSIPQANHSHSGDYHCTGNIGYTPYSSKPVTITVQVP

[3] = target: T3, human FcγRIIb extracellular domain with C-terminal His-tag (human, UniProt P31994 43-217); experiment: SPR (BIACORE), antibody captured, FcgR analyte
T3 construct: also called human FcgRIIb; not shown: His-tag added to the C-terminus
T3 sequence: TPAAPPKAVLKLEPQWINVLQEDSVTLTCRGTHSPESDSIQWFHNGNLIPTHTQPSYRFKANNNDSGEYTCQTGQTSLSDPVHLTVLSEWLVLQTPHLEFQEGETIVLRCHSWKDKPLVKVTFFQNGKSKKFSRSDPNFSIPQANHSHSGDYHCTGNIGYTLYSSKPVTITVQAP

[4] = target: T4, cynomolgus monkey FcγRIIa2 extracellular domain with C-terminal His-tag (cynomolgus monkey); experiment: SPR (BIACORE), antibody captured, FcgR analyte
T4 construct: also called cyno FcgRIIa2; cynoFcγRIIa2; not shown: His-tag added to the C-terminus
T4 chain: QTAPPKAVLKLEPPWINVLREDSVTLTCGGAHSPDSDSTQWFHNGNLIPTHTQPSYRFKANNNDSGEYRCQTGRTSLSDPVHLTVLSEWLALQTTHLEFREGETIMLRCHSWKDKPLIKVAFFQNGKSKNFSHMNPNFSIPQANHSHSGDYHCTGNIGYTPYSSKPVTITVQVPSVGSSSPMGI

[5] = target: T5, cynomolgus monkey FcγRIIa3 extracellular domain with C-terminal His-tag (cynomolgus monkey); experiment: SPR (BIACORE), antibody captured, FcgR analyte
T5 construct: also called cyno FcgRIIa3; cynoFcγRIIa3; not shown: His-tag added to the C-terminus
T5 chain: T4 chain with K127I, N130K, H133P, Q142R

[6] = target: T6, cynomolgus monkey FcγRIIa1 extracellular domain with C-terminal His-tag (cynomolgus monkey); experiment: SPR (BIACORE), antibody captured, FcgR analyte
T6 construct: also called cyno FcgRIIa1; cynoFcγRIIa1; not shown: His-tag added to the C-terminus
T6 chain: T4 chain with T95P, A121T, K127I, S128A, N130K, N135D, Q142R

[7] = target: T7, human FcγRIIaR extracellular domain with C-terminal His-tag (human, UniProt P12318 34-217); experiment: SPR (BIACORE), antibody captured, FcgR analyte
T7 construct: also called human FcgRIIaR; FcγRIIa type R; not shown: His-tag added to the C-terminus
T7 chain: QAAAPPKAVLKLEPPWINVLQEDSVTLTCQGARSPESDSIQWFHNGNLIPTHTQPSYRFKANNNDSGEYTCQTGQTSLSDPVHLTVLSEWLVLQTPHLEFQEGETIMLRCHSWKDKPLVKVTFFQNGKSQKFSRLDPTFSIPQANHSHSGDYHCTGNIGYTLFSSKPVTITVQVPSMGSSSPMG

[8] = target: T8, human FcγRIIIaV extracellular domain with C-terminal His-tag (human, UniProt P08637 17-208); experiment: SPR (BIACORE), antibody captured, FcgR analyte
T8 construct: also called human FcgRIIIaV; not shown: His-tag added to the C-terminus

[9] = target: T9, human FcγRIIaH extracellular domain with C-terminal His-tag (human, UniProt P12318 34-217); experiment: SPR (BIACORE), antibody captured, FcgR analyte
T9 construct: also called human FcgRIIaH; FcγRIIa type H; not shown: His-tag added to the C-terminus
T9 sequence: T7 chain with R134H

[10] = target: T1, cynomolgus monkey FcγRIIIaS …; experiment: SPR (BIACORE); KD of SG1 / KD of variant
[11] = target: T2, cynomolgus monkey FcγRIIb extracellular …; experiment: SPR (BIACORE); KD of SG1 / KD of variant
[12] = target: T3, human FcγRIIb extracellular domain with …; experiment: SPR (BIACORE); KD of SG1 / KD of variant
[13] = target: T4, cynomolgus monkey FcγRIIa2 …; experiment: SPR (BIACORE); KD of SG1 / KD of variant
[14] = target: T5, cynomolgus monkey FcγRIIa3 …; experiment: SPR (BIACORE); KD of SG1 / KD of variant
[15] = target: T6, cynomolgus monkey FcγRIIa1 …; experiment: SPR (BIACORE); KD of SG1 / KD of variant
[16] = target: T7, human FcγRIIaR extracellular domain …; experiment: SPR (BIACORE); KD of SG1 / KD of variant
[17] = target: T8, human FcγRIIIaV extracellular domain …; experiment: SPR (BIACORE); KD of SG1 / KD of variant
[18] = target: T9, human FcγRIIaH extracellular domain …; experiment: SPR (BIACORE); KD of SG1 / KD of variant
[19] = target: T10, cynomolgus monkey FcγRIIa3 extracellular domain, His-tagged (cynomolgus monkey); experiment: SPR (BIACORE); KD of SG1 divided by KD of the variant
T10 construct: also called cyno FcgRIIa3; cynoFcγRIIa3; not shown: His-tag added to the C-terminus
T10 chain: T4 chain with K127I, N130K, H133P, Q142R
Procedure: (§1) The kinetic analysis of interactions between these antibodies and FcγR was carried out using BIACORE® T200 or BIACORE® 4000 (GE Healthcare). HBS-EP+ (GE Healthcare) was used as the running buffer, and the measurement temperature was set to 25° C. […] After the measurement, the antibody captured on the chip was washed off by allowing reaction with 10 mM glycine-HCl, pH1.5 and 25 mM NaOH so that the chip was regenerated and used repeatedly. The sensorgrams obtained as measurement results were analyzed by the 1:1 Langmuir binding model using the BIACORE® Evaluation Software to calculate the binding rate constant ka (L/mol/s) and dissociation rate constant kd (1/s), and the dissociation constant KD (mol/L) was calculated from these values. […] Regarding such interactions, KD values were calculated using the following 1:1 binding model described in BIACORE® T100 Software Handbook BR1006-48 Edition AE.

[20] = target: T11, human FcγRIIaR extracellular domain, His-tagged (human, UniProt P12318 34-217); experiment: as above
T11 construct: also called human FcgRIIaR; FcγRIIa (type R); not shown: His-tag added to the C-terminus
T11 chain: T7 chain
Procedure: as §1

[21] = target: T12, cynomolgus monkey FcγRIIIaS extracellular domain, His-tagged (cynomolgus monkey, UniProt A3RFZ7 21-206 (rhesus entry)); experiment: as above
T12 construct: also called cyno FcgRIIIaS; cynoFcγRIIIaS; not shown: His-tag added to the C-terminus
Procedure: as §1

[22] = target: T13, cynomolgus monkey FcγRIIa2 extracellular domain, His-tagged (cynomolgus monkey); experiment: as above
T13 construct: also called cyno FcgRIIa2; cynoFcγRIIa2; not shown: His-tag added to the C-terminus
T13 chain: T4 chain
Procedure: as §1

[23] = target: T14, human FcγRIIaH extracellular domain, His-tagged (human, UniProt P12318 34-217); experiment: SPR (BIACORE), antibody captured on chip, soluble FcgR as analyte, 25 C
T14 construct: also called human FcgRIIaH; FcγRIIa (type H); not shown: His-tag added to the C-terminus
T14 sequence: T7 chain with R134H
Procedure: as §1

[24] = target: T15, cynomolgus monkey FcγRIIb extracellular domain, His-tagged (cynomolgus monkey); experiment: as above
T15 construct: also called cyno FcgRIIb; cynoFcγRIIb; not shown: His-tag added to the C-terminus
T15 chain: T2 chain
Procedure: as §1

[25] = target: T16, human FcγRIIb extracellular domain, His-tagged (human, UniProt P31994 43-217); experiment: as above
T16 construct: also called human FcgRIIb; not shown: His-tag added to the C-terminus
T16 sequence: T3 sequence
Procedure: as §1

[26] = target: T17, cynomolgus monkey FcγRIIa1 extracellular domain, His-tagged (cynomolgus monkey); experiment: SPR (BIACORE); KD of SG1 divided by KD of the variant
T17 construct: also called cyno FcgRIIa1; cynoFcγRIIa1; not shown: His-tag added to the C-terminus
T17 chain: T4 chain with T95P, A121T, K127I, S128A, N130K, N135D, Q142R
Procedure: as §1

T1 sequence (A3RFZ7 21-206): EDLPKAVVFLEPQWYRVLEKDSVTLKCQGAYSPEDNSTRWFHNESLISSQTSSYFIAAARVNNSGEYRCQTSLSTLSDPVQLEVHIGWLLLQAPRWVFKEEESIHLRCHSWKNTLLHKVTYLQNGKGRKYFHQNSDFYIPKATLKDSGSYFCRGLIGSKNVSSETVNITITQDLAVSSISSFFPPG
T8 sequence (P08637 17-208 F176V): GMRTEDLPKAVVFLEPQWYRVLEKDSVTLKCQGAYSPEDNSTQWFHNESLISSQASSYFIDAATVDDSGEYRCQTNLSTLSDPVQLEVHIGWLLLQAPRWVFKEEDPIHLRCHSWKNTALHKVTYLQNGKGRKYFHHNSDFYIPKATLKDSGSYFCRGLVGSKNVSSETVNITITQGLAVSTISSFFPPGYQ
T12 sequence (A3RFZ7 21-206): as the sequence (A3RFZ7 21-206) above

B1: M103205H795-MY146/M103202L889-SK1 (antibody, human IgG1, kappa, name in EU numbering)
heavy: QVTLKESGPVLVKPTETLTLTCTVSGIDLSHDDISWVRQAPGKGLEWVGIISYAGSTYYASWAKGRLTISKDTSKNQVVLTMTNMDPVDTATYYCARGVPAYSHGGDLWGQGTLVTVSSASTKGPSVFPLAPSSKSTSGGTAALGCLVKDYFPEPVTVSWNSGALTSGVHTFPAVLQSSGLYSLSSVVTVPSSSLGTQTYICNVNHKPSNTKVDKKVEPKSCDKTHTCPPCPAPELLNGPSVFLFPPKPKDTLMISRTPEVTCVVVDVSEEDPEVKFNWYVDGVEVHNAKTKPREEQYNLTYRVVSVLTVLHQDWLNGKEYKCKVSNKALPAPIEKTISKAKGQPREPQVYTLPPSREEMTKNQVSLTCLVKGFYPSDIAVEWESNGQPENNYKTTPMVLDSDGSFFLYSKLTVDKSRWQQGNVFSCSVMHEALHNHYTQKSLSLSP
light: DIVMTQSPATLSLSPGERATLSCTSSQSVYHANWLSWFQQKPGQPPKLLIYWASTLAYGVPSRFSGSGSGTDFTLTISSLQPEDAATYYCAGGYGGGRYAFGQGTKVEIKRTVAAPSVFIFPPSDEQLKSGTASVVCLLNNFYPREAKVQWKVDNALQSGNSQESVTEQDSKDSTYSLSSTLTLSKADYEKHKVYACEVTHQGLSSPVTKSFNRGEC
notes: Fc variant of MS1032LO06-SG1; positions in EU numbering
[1]
  Kd: 3100 nM
[2]
  Kd: 850 nM
[3]
  Kd: 880 nM
[4]
  Kd: 1800 nM
[5]
  Kd: 4800 nM
[6]
  Kd: 170 nM
[7]
  Kd: 2100 nM
[8]
  Kd: 8800 nM
[9]
  Kd: 2200 nM
[10]
  KD fold (SG1 = 1): 0.12 fold
[11]
  KD fold (SG1 = 1): 2.1 fold
[12]
  KD fold (SG1 = 1): 5.2 fold
[13]
  KD fold (SG1 = 1): 2.8 fold
[14]
  KD fold (SG1 = 1): 3.5 fold
[15]
  KD fold (SG1 = 1): 18.8 fold
[16]
  KD fold (SG1 = 1): 0.5 fold
[17]
  KD fold (SG1 = 1): 0.09 fold
[18]
  KD fold (SG1 = 1): 0.3 fold

B2: M103205H795-MY201/M103202L889-SK1 (antibody, human IgG1, kappa)
heavy: B1 heavy with E270D, L300S, A332K, M398P
light: B1 light
notes: Fc variant of SG1 with G236N/H268D/A330K; also called MS1032LO06-MY201
[19]
  KD fold (SG1 = 1): 4 fold
[20]
  KD fold (SG1 = 1): 0.5 fold
[21]
  KD fold (SG1 = 1): 0.05 fold
[22]
  KD fold (SG1 = 1): 3.8 fold

B3: M103205H795-MY264/M103202L889-SK1 (antibody, human IgG1, kappa, name in EU numbering)
heavy: B1 heavy with N238L, E270D, L300S, A332K, M398P
light: B1 light
notes: Asn at EU 236 of MY201 replaced with Leu
[23]
  Kd: 150 nM
[24]
  Kd: 260 nM
[25]
  Kd: 22000 nM
[19]
  KD fold (SG1 = 1): 2.1 fold
[26]
  KD fold (SG1 = 1): 0.8 fold
